Experimental findings from patent US20050221400A1 are described below.

The target in this assay is PSCA (prostate stem cell antigen), human, PSCA v.1 (human) (UniProt O43653). Nature of the assay: FACS titration on SW780 cells, anti-hIgG-PE, Graphpad Prism sigmoidal dose-response fit.

The term Kd denotes the constant that tells how readily two partners part at equilibrium. Lower therefore signals higher affinity.

B1: Ha1-5.99 (antibody, IgG2, V domains shown)
VH: QVHLQQWGAGLLKPSETLSLTCAVYGGSFSGYYWSWIRQPPGKGLEWIGEINHSGSTSYKPSLKSRVTVSVDTSKNQFSLKLSYVTAADTAVYYCARDRGDYGDFLFDYWGQGTLVTVSS
VL: SPGERATLSCRASQSIGSTYLAWYQQKPGQAPRLLIYGASSRATGIPERFSGSGSGTDFTLTISGLEPEDFAVFYCQQCGSSPPTFGQGTKVEIKR
B1: the Kd worked out at 0.28 nM. This lies in the sub-nanomolar range.

B2: Ha1-4.37 (antibody, V domains shown)
VH: PGALQESGPGLVRPSQTLSLTCTVSGGSISSGGTYYWIWIRQHPGKGLEWIGYIYYSGSTYYNPSLKSRVTISVDTSKNQFSLKLSSVTAADTAVYYCARDGITMVRGISGGMDVWGQGTTVTVSS
VL: ASVGDRVTITCRASQSISSHLNWYQQKPGKAPKLLIYAASSLQSGVPSRFSGSGSGTDFTLSISSLQPEDFATYFCQQSYSIPRTFGQGTKVEITR
With B2, the dissociation constant (Kd) was determined as 0.23 nM.
